Experimental data from PMC5673899, “Structural basis for receptor recognition of pollen tube attraction peptides” (Nature Communications, 2017).
“Also recorded” adds a separate entry of the source.

Experiments:
AtPRK6^LRR = experiment: ITC, AtLURE1.2 titrated into AtPRK6^LRR; parameters: species or system Arabidopsis thaliana; conditions: MicroCalorimeter ITC200, 25 °C, 200 mM HEPES pH 7.0, 100 mM NaCl, ~0.9 mM AtLURE1.2 into 0.08 mM AtPRK6^LRR, 20 × 2 μl at 2.5-min intervals, insect cell proteins, read-out: dissociation constant / binding affinity
From the text: (§1) The genes of AtPRK3 ^LRR (residues 1–241), AtPRK4 ^LRR (residues 1–277), AtPRK5 ^LRR (residues 1–279), AtPRK6 ^LRR (residues 1–262), MIK1 ^LRR (residues 1–633), MIK2 ^LRR (residues 1–707) were amplified from Arabidopsis cDNA library by PCR and cloned into pFastBac-1 vector with a C-terminal 6 × His-tag. Their identities were confirmed by sequencing. The mature form of AtLURE1.1 (residues 20–94), AtLURE1.2 (residues 20–90), AtLURE1.3 (residues 21–91), and AtLURE1.4 (residues 20–90) were cloned into pFastBac-1 vector, with a modified N-terminal hemolin signal peptide and 6 × His-SUMO tag. Point mutation constructs were generated by QuickChange Site-Directed Mutagenesis Kit (Strategene). All the proteins were expressed using the Bac-to-Bac baculovirus expression system (Invitrogen) in High Five cells at 22 °C. One liter of High Five cells (2.0 × 10^6 cells mL^−1) cultured in the medium from Expression Systems was infected with 25 ml recombinant baculovirus and the media was collected after 72 h of infection. Secreted LRR proteins were purified using Ni-NTA (Novagen) and size-exclusion chromatography (Hiload 200, GE Healthcare) in buffer containing 10 mM Bis-Tris pH 6.0 and 100 mM NaCl. The His-SUMO tag of the AtLURE proteins was removed by Prescission Protease at 4 °C overnight in buffer containing 25 mM Tris pH 8.0 and 150 mM NaCl. […]

AtPRK3^LRR = experiment: ITC, AtLURE1.2 titrated into AtPRK3^LRR; format: binding, Arabidopsis; conditions: 25 °C, 200 mM HEPES pH 7.0, 100 mM NaCl, ~0.9 mM AtLURE1.2 into 0.08 mM AtPRK3^LRR
From the text: as §1

MIK1^LRR = experiment: ITC, AtLURE1.2 titrated into MIK1^LRR; format: binding, Arabidopsis; conditions: 25 °C, 200 mM HEPES pH 7.0, 100 mM NaCl, twenty injections of 0.5 mM AtLURE1.2 into 0.05 mM MIK1LRR
From the text: as §1, with “NaCl.” for “NaCl. The His-SUMO tag of the AtLURE proteins was removed by Prescission Protease at 4 °C overnight in buffer containing 25 mM Tris pH 8.0 and 150 mM NaCl.”
Supplementary Figure 6: Binding affinity between MIK1LRR, MIK2LRR and AtLURE1.2 was not detected in ITC assay. […]

MIK2^LRR = experiment: In vitro pull-down with MIK2^LRR; format: binding, Arabidopsis; conditions: Ni-NTA, excess AtLURE1.2, on ice 30 min, washed five times; SDS-PAGE, Coomassie blue
From the text: as §1, with “NaCl.” for “NaCl. The His-SUMO tag of the AtLURE proteins was removed by Prescission Protease at 4 °C overnight in buffer containing 25 mM Tris pH 8.0 and 150 mM NaCl.”
The purified His-tagged ectodomains of AtPRK proteins and MIK1, 2 were used to pull-down the AtLURE1.2 peptide. […] All the eluted samples were analyzed by SDS-PAGE and visualized by Coomassie blue staining. […]

MDIS1 = conditions: cited from earlier work
From the text: (§2) More recently, progress has been made in the identification of sensory receptors for external cues during pollen tube guidance, [18]. Through genetic screening, two research groups identified different pollen tube specific receptor kinases (RKs) which can function as the receptors of AtLURE1 (refs. [19], [20]). […] By contrast, our data ... || page 2: co-receptor in the signaling system. Typos : - line 167 : Lue242 instead of Leu242 Reviewer #3 (Remarks to the Author): The Zhang et al. manuscript is a continuation of the study of pollen tube guidance to its female target to deliver sperm for fertilization, starting almost twenty years ago by the Higashiyama group, which recently reported a number of pollen receptor kinases (PRKs) as receptors for the attractant LURE1(- 2) from Arabidopsis. The Zhang et al study here caps it by elucidating the structure of LURE1-PRK6 on the atomic level. In principle, the study is an imminently publi ...

MIK1 = conditions: cited from earlier work
From the text: as §2

MIK2 = conditions: cited from earlier work
From the text: as §2

B1: AtLURE1.2: mature form of AtLURE1.2 (residues 20–90), defensin-like cysteine-rich peptide expressed in insect cells (protein)
chain: TLINGSSDEERTYSFSPTTSPFDPRSLNQELKIGRIGYCFDCARACMRRGKYIRTCSFERKLCRCSISDIK
modifications: left off: His6, N-terminal, cleaved | SUMO, N-terminal, cleaved
notes: mature form of AtLURE1.2 (residues 20–90), defensin-like cysteine-rich peptide expressed in insect cells
Kd (AtPRK6^LRR): ~3 µM
binding in ITC (AtPRK3^LRR): none of the purified AtPRK3^LRR, MIK1^LRR or MIK2^LRR proteins showed detectable interaction
binding in ITC (MIK1^LRR): not detected; also recorded: no obvious heat was produced; also recorded: none of the purified AtPRK3^LRR, MIK1^LRR or MIK2^LRR proteins showed detectable interaction
interaction in pull-down assay (MIK2^LRR): none of the other LRR proteins was found to interact
binding to MDIS1 (MDIS1): directly binds
binding to MIK1 (MIK1): directly binds
binding to MIK2 (MIK2): directly binds
